Measured values reported in PMC3098278.

Assays:
Assay in all cases: filter binding
[1] = tested on: 80S ribosome, L11 H109E ((yeast)); conditions: poly(U), tRNAPhe in P-site, soluble factors; aminoacylated (Phe); Nitrocellulose filter binding, 30 C, 35 min (A-site) or 40 min (P-site), poly(U)-primed ribosomes; buffer, salt and pH not given; errors are SD
[2] = tested on: 80S ribosome, wild-type L11 ((yeast)); conditions: poly(U), tRNAPhe in P-site, soluble factors; aminoacylated (Phe); Nitrocellulose filter binding, 30 C, 35 min (A-site) or 40 min (P-site), poly(U)-primed ribosomes; buffer, salt and pH not given; errors are SD
[3] = tested on: 80S ribosome, L11 114-116R (Saccharomyces cerevisiae? (yeast)); conditions: aminoacylated (N-acetyl-Phe); Nitrocellulose filter binding, 30 C, 35 min (A-site) or 40 min (P-site), poly(U)-primed ribosomes; buffer, salt and pH not given; errors are SD
[4] = tested on: 80S ribosome, L11 87-90R (Saccharomyces cerevisiae? (yeast)); conditions: aminoacylated (N-acetyl-Phe); Nitrocellulose filter binding, 30 C, 35 min (A-site) or 40 min (P-site), poly(U)-primed ribosomes; buffer, salt and pH not given; errors are SD
[5] = tested on: 80S ribosome, L11 H109E (Saccharomyces cerevisiae? (yeast)); conditions: aminoacylated (N-acetyl-Phe); Nitrocellulose filter binding, 30 C, 35 min (A-site) or 40 min (P-site), poly(U)-primed ribosomes; buffer, salt and pH not given; errors are SD
[6] = tested on: 80S ribosome, L11 H109F (Saccharomyces cerevisiae? (yeast)); conditions: aminoacylated (N-acetyl-Phe); Nitrocellulose filter binding, 30 C, 35 min (A-site) or 40 min (P-site), poly(U)-primed ribosomes; buffer, salt and pH not given; errors are SD
[7] = tested on: 80S ribosome, wild-type L11 (Saccharomyces cerevisiae? (yeast)); conditions: aminoacylated (N-acetyl-Phe); Nitrocellulose filter binding, 30 C, 35 min (A-site) or 40 min (P-site), poly(U)-primed ribosomes; buffer, salt and pH not given; errors are SD

Row | Substance | Kd [1] [nM] | Kd [2] [nM] | Kd [3] [nM] | Kd [4] [nM] | Kd [5] [nM] | Kd [6] [nM] | Kd [7] [nM]
1 | Phe-tRNAPhe (A-site) | 176 | 97.6 | – | – | – | – | –
2 | Ac-Phe-tRNAPhe (P-site) | – | – | 41 | 122 | 42.8 | 99.2 | 72.3
